According to patent publication US20140228299A1, “PROPHYLACTIC AND THERAPEUTIC AGENT FOR NEUROLOGICAL DISEASES USING LIPOPROTEINS AND PROPHYLACTIC AND THERAPEUTIC METHOD FOR NEUROLOGICAL DISEASES” (National University Corporation Tokyo Medical and Dental …, priority 2011, published 2014):

Tests used:
[1] = biological target: T1, complex of LRP1 and NMDA receptor (Rattus norvegicus, UniProt G3V928); experiment: Immune precipitation of LRP1-NMDA receptor complex from RGC; format: cell-based; details: LP added to RGC culture, cells collected in 15 minutes; anti-NMDA receptor 2B immune precipitation
T1 construct: endogenous in cells
T1 sequence (G3V928 20-3944 limits assumed, one chain of several): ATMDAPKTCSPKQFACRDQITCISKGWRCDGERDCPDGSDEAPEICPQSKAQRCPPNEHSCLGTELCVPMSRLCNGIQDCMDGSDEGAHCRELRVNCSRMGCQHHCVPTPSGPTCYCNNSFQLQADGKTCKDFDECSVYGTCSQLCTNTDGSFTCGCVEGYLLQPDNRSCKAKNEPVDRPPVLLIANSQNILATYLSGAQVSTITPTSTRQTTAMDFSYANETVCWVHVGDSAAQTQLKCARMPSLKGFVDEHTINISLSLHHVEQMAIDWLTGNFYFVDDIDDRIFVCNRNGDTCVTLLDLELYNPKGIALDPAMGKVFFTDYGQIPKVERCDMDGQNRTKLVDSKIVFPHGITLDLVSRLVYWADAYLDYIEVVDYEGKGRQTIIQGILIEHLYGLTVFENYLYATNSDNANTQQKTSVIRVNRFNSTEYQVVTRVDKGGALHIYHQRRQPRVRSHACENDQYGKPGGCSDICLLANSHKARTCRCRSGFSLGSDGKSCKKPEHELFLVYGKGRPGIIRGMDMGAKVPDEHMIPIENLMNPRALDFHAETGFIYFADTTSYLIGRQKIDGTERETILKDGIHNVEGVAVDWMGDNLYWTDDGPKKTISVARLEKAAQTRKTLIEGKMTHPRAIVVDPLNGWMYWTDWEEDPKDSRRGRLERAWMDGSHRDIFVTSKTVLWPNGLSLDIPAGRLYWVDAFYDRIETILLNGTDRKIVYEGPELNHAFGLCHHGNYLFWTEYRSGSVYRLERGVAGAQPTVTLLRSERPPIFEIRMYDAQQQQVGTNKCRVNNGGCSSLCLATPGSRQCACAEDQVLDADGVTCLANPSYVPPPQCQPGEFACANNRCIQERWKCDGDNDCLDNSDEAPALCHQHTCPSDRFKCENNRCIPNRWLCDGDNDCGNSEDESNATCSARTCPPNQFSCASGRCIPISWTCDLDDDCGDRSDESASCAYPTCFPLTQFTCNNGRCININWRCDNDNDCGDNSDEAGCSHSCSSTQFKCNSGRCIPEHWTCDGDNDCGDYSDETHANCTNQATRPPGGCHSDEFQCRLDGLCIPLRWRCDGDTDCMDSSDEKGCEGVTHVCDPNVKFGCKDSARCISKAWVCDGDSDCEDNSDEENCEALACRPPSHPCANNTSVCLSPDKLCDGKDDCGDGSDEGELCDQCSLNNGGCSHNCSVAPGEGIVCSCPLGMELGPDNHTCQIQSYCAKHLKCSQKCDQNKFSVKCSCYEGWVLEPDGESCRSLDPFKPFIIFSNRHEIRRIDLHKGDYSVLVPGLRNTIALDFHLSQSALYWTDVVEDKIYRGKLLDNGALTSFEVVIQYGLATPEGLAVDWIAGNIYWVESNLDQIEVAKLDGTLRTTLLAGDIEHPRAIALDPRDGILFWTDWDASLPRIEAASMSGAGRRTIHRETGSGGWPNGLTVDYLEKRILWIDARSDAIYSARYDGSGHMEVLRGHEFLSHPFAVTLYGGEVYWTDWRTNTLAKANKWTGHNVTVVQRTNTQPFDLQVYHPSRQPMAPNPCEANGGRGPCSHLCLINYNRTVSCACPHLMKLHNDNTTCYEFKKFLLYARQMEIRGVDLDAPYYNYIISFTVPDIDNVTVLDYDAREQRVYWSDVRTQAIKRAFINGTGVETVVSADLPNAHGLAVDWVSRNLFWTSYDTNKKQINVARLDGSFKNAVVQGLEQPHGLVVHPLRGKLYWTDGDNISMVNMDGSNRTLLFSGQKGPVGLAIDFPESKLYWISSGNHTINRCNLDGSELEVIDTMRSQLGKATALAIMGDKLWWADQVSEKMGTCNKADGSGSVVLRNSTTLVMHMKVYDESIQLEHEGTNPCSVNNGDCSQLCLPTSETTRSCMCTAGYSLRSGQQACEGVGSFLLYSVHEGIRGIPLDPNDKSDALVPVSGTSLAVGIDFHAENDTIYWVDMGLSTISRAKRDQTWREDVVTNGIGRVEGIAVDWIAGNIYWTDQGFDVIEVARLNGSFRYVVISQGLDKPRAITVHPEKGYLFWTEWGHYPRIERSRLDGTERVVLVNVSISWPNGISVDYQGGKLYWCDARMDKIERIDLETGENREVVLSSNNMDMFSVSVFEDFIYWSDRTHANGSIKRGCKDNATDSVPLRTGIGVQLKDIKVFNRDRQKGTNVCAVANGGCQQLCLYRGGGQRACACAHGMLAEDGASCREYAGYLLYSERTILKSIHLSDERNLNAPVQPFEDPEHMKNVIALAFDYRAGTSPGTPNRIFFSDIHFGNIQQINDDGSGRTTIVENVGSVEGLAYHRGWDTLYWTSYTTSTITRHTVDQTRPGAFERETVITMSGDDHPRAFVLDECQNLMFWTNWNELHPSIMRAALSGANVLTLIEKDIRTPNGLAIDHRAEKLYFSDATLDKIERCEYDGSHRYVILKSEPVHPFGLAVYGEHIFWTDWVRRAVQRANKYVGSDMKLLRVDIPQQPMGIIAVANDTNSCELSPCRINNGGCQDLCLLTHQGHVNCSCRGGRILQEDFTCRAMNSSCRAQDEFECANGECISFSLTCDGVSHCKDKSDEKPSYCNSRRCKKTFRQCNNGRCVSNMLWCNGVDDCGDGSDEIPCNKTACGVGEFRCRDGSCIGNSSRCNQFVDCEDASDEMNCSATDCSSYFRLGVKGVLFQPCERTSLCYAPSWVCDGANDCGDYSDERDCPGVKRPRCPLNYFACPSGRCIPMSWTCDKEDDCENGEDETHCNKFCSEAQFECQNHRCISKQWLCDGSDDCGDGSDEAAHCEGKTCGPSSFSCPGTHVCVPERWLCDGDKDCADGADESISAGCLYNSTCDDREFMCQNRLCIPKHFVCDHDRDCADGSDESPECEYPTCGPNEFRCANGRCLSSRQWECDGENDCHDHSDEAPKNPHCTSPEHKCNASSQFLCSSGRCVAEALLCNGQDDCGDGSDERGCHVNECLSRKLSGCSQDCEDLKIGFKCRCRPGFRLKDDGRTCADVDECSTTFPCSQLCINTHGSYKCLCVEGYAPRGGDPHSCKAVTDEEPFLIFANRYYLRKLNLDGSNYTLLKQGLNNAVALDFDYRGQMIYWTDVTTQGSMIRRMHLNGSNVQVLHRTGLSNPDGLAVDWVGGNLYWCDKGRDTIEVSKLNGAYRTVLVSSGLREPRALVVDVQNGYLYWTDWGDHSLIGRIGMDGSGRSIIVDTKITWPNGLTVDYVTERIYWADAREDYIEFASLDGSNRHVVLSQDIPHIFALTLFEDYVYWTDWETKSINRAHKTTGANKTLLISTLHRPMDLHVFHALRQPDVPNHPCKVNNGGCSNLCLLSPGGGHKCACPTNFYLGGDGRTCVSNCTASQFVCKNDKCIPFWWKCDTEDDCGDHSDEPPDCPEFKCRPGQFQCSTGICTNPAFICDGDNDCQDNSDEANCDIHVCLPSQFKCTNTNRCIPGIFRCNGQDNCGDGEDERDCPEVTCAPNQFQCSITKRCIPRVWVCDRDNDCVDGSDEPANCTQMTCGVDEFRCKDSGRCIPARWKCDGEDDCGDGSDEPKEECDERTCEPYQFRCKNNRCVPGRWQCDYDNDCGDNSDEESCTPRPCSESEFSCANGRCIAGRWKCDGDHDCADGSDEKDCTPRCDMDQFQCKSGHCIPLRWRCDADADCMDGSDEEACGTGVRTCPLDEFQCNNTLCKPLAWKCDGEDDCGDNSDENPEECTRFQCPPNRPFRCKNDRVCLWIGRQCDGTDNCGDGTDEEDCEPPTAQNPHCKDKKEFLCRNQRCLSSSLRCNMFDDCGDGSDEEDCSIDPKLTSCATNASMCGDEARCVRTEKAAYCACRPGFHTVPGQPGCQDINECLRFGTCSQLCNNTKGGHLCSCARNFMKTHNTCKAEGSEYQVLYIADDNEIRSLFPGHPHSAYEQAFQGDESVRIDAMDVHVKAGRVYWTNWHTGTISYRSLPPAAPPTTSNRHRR
Description: LP was added to a culture liquid of the retinal glia cells and the cells were collected in 15 minutes, followed by the immune precipitation as will be described below. For the immune precipitation, a rabbit anti-NMDA receptor 2B antibody was used, and the Western blotting was performed for LRP1 and NMDA receptor 2B.
The immune precipitation was carried out in the manner as will be described below. Specifically, the co-immunoprecipitation was performed in accordance with procedures of May et al. (May et al., 2004) by using a mixed solution prepared by adding a RGC dissolved solution to a mixed solution of a complete EDTA-free protease inhibitor cocktail (Roche, Mannheim, Germany) and a PhosSTOP phosphatase inhibitor cocktail (Roche) and a mixture of 10 mM Tris-HCl (pH7.4), 150 mM NaCl, 1 mM MgCl2, 1 mM CaCl2 and 1% Triton X-100. RGC was washed once with HBSS and collected on a 96-well plate using 40 μl per well of a dissolving buffer. The dissolved solutions from wells 9-12 were combined in each group. The RGC dissolved solution was passed fifteen times through a 22-gauge needle and then centrifuged at 15,000×g for 15 minutes at 4° C. The resulting supernatant was pretreated at 4° C. for 1 hour with 40 μl of 50% equilibrated protein G-Sepharose (GE Healthcare, Buckinghamshire, UK), and the Sepharose beads were removed by centrifugation. […]

[2] = test system: glycogen synthase kinase 3β (GSK3β); experiment: GSK3β phosphorylation level in RGC after glutamic acid treatment (Western blotting); format: cell-based, rat; details: cells collected 18 hours after treatment with glutamic acid
Description: The apoptosis-like cells were computed by the nucleus staining with Hoechst 33342. […] The retinal glia cells were collected in 18 hours after treatment with glutamic acid, followed by Western blotting in which a rabbit anti-phosphorylated GSK3β (p-GSK3β) antibody and a rabbit anti-GSK3β antibody were used.
The immune blotting used in the above example was carried out in a manner as will be described below. Specifically, the lipoprotein obtained in each of the above examples was dissolved in 62.5 mM Tris-HCl (pH 6.8), 10% glycerol, 2% sodium dodecyl sulfate (SDS) and 5% β-mercaptoethanol (a sample buffer), and the resulting mixture was boiled for 5 minutes. The resulting protein was separated by electrophoresis using 0.1% SDS-containing polyacrylamide gel and then transferred to a polyvinylidene difluoride membrane. […]

formation of a complex of LRP1 and NMDA receptor [1]: promotes
Substance: LP: reconstituted lipoprotein of POPC, cholesterol and recombinant human apolipoprotein E3
phosphorylation level of GSK3β [2]: recovery
